{
  "source": "paper PMC4741949",
  "about": "“Aptamer targeting EGFRvIII mutant hampers its constitutive autophosphorylation and affects migration, invasion and proliferation of glioblastoma cells”",
  "binders": {"B1": {"name": "CL4 (structured_RNA)", "RNA": "GCCUUAGUAACGUGCUUUGAUGUCGAUUCGACAGGAGGC", "modifications": "2'F-pyrimidines (2'F-C, 2'F-U)"}},
  "molecular_target": "EGFR wild-type extracellular domain (human, UniProt P00533 25-645)",
  "assay": "UV (254 nm) cross-linking MALDI-MS; 1:1 molar; peptide 495-500 (domain IV) linked to AGGC and GAGGC; RT-qPCR: 15 min 37 C, 100 ug/ml polyinosine, DPBS washes; flow cytometry: DPBS, 37 C, 30 min; confocal: DMEM without FBS; UV cross-linking buffer not given",
  "details": "protein: recombinant",
  "data": [
    {"binder": "B1", "values": [
      {"measurement": "binding result", "value": "binds"}
    ]}
  ]
}
